Residue numbers refer to the chain shown, from its start. Names and notes keep the numbering of the source.

We go through 3 molecules from US20120316071A1 (published 2012).

Assay [1] addresses T1, rHuman Erythropoietin R/Fc Chimera, CF (R&D Systems Cat#963-ER) (human, UniProt P19235 25-250).
T1 construct: Bought from R&D Systems; also called EPO R/Fc; Epo R/Fc chimera; not shown: Fc of the bought chimera
T1 sequence (looked up): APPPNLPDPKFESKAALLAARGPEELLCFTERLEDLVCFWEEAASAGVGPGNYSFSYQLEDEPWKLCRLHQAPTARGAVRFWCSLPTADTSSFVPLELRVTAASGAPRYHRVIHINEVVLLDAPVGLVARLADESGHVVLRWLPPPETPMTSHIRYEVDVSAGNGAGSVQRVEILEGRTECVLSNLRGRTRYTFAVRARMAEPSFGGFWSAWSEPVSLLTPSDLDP
The assay is described as follows: MSD multispot ECL, antigen spotted on plate, Fab 352.5 nM; blank spot 494.

The target in assay [2] is T2, rHuman Notch-1/Fc Chimera, CF (R&D Systems Cat#3647-TK) (human, UniProt P46531 19-526).
T2 construct: Bought from R&D Systems; not shown: Fc of the bought chimera
The description is as above.

For assay [3], the target named is T3, rHuman HGF R/c-MET/Fc Chimera, CF (R&D Systems Cat#358-MT/CF) (human, UniProt P08581 25-932).
T3 construct: Bought from R&D Systems; also called HGF R/Fc; hepatocyte growth factor receptor (HGF R/c-Met); not shown: Fc of the bought chimera
The assay is described as above.

For assay [4], the target named is T4, Recombinant Human DLL4 (R&D Systems Cat#1506-D4/CF) (human, UniProt Q9NR61 27-524).
T4 construct: Bought from R&D Systems; also called rHuman DLL4; delta-like protein 4
The assay is described as above.

For assay [5], the target named is T5, rHuman P-Cadherin/Fc Chimera, CF (R&D Systems Cat#861-PC) (human, UniProt P22223 108-654).
T5 construct: Bought from R&D Systems; not shown: Fc of the bought chimera
The assay is described as above.

Assay [6] has as its target T6, rHuman ErbB2/Fc Chimera, CF (R&D Systems Cat#1129-ER) (human, UniProt P04626 23-652).
T6 construct: Bought reagent; also called human epidermal growth factor 2 receptor; Fc part of the bought chimera not given
The assay is described as follows: ECL Multispot (MSD) assay, antigen spotted on plate, 10 nM Fab; blank spot of this row 472.

Assay [7] concerns the target T7, rHuman EGF R/Fc Chimera, CF (R&D Systems Cat#344-ER) (human, UniProt P00533 25-645).
T7 construct: Bought reagent; also called epidermal growth factor receptor; Fc part of the bought chimera not given
The assay is described as above.

The target of assay [8] is T8, rHuman HGF R/c-MET/Fc Chimera, CF (R&D Systems Cat#358-MT/CF) (human, UniProt P08581 25-932).
T8 construct: Bought reagent; also called HGF R/Fc; hepatocyte growth factor receptor; Fc part of the bought chimera not given
The description is as above.

Assay [9] concerns the target T9, rHuman Notch-1/Fc Chimera, CF (R&D Systems Cat#3647-TK) (human, UniProt P46531 19-526).
T9 construct: Bought reagent; Fc part of the bought chimera not given
Described as above.

For assay [10], the target named is T10, rHuman IGF-1 sR, CF (R&D Systems Cat#391-GR) (human, UniProt P08069 31-932).
T10 construct: Bought soluble receptor; The column head prints only 'IGF-1'; also called insulin-like growth factor-1 soluble receptor
The assay is described as above.

In assay [11] the target is T11, rHuman P-Cadherin/Fc Chimera, CF (R&D Systems Cat#861-PC) (human, UniProt P22223 108-654).
T11 construct: Bought reagent; Fc part of the bought chimera not given
Described as above.

Assay [12] addresses T12, rHuman Erythropoietin R/Fc Chimera, CF (R&D Systems Cat#963-ER) (human, UniProt P19235 25-250).
T12 construct: Bought reagent; also called EPO R; EPO R/Fc; Fc part of the bought chimera not given
T12 sequence (looked up): T1 sequence (looked up)
Described as above.

In assay [13] the target is T13, rHuman CD44/Fc Chimera, CF (R&D Systems Cat#3660-CD) (human, UniProt P16070 21-220).
T13 construct: Bought reagent; Fc part of the bought chimera not given
The description is as above.

Assay [14] has as its target T14, Recombinant Human DLL4 (R&D Systems Cat#1506-D4/CF) (human, UniProt Q9NR61 27-524).
T14 construct: Bought recombinant protein; also called delta-like protein 4; rHuman DLL4
The assay is described as follows: Multispot ECL (MSD) titration; antigen spotted on plate; Fab 930 nM; blank spot 1206.

In assay [15] the target is T15, rHuman Erythropoietin R/Fc Chimera, CF (R&D Systems Cat#963-ER) (human, UniProt P19235 25-250).
T15 construct: Bought Fc chimera; also called EPO R/Fc; EPO R; Fc part of the bought chimera not given
T15 sequence (looked up): T1 sequence (looked up)
The description is as above.

In assay [16] the target is T16, rHuman ErbB2/Fc Chimera, CF (R&D Systems Cat#1129-ER) (human, UniProt P04626 23-652).
T16 construct: Bought Fc chimera; also called human epidermal growth factor 2 receptor; Fc part of the bought chimera not given
The description is as above.

The target of assay [17] is T17, rHuman IGF-1 sR (IGF-1 sR), CF (R&D Systems Cat#391-GR) (human, UniProt P08069 31-932).
T17 construct: Bought soluble receptor; also called insulin-like growth factor-1 soluble receptor
Described as above.

B1: Fab VH1-46_IGHD3-10*01_IGHJ4*01 & B3_IGKJ1*01 (Fab, V domains shown)
VH: QVQLVQSGAEVKKPGASVKVSCKASGYTFTSYYMHWVRQAPGQGLEWMGIINPSGGSTSYAQKFQGRVTMTRDTSTSTVYMELSSLRSEDTAVYYCAREYYYGSGSYYNDYFDYWGQGTLVTVSS
VL: not shown
notes: Tested as a Fab made in E. coli; VH was cloned into Plasmid A (CH1 constant region, His6 and Flag tags); The kappa VL was cloned into Plasmid C (kappa CL)
Consider B1, for which the ECL signal in assay [1] came to 4100; in assay [2], 715; in [3] it was 606; in assay [4] it was 660; in assay [5], 649.

B2: Fab VH1-46_IGHD6-6*01_IGHJ1*01 S102A/S103P/S104F (APF) & L6_IGKJ1*01 (Fab, V domains shown)
VH: QVQLVQSGAEVKKPGASVKVSCKASGYTFTSYYMHWVRQAPGQGLEWMGIINPSGGSTSYAQKFQGRVTMTRDTSTSTVYMELSSLRSEDTAVYYCAREEYAPFSAEYFQHWGQGTLVTVSS
VL: not shown
notes: Tested as a Fab made in E. coli; also called H:APF & L:wt; APF triple mutant
On to B2, for which the ECL signal in assay [6] was determined as 391; in [7], 428; in assay [8] it was 426; in [9], 299; in assay [10], 434; in assay [11] it was 433. Moreover, the ECL signal in [12] was 480; in [13], 400.

B3: Fab VH1-46_IGHD6-13*01_IGHJ4*01 & O1_IGKJ1*01 (Fab, V domains shown)
VH: B2 VH with E100G, A102S, P103S, F104S, S105W, A106Y, E107D, Q110D, H111Y
VL: DIVMTQTPLSLPVTPGEPASISCRSSQSLLDSDDGNTYLDWYLQKPGQSPQLLIYTLSYRASGVPDRFSGSGSGTDFTLKISRVEAEDVGVYYCMQRIEFPSWTFGQGTKVEIKR
notes: Germline library Fab expressed in E. coli; VH was cloned into Plasmid A (CH1 constant region, His6 and Flag tags); The kappa VL was cloned into Plasmid C (kappa CL)
For the molecule B3, the ECL signal in assay [14] is 8160; in assay [15], 3010; in assay [16] it was 2220; in assay [17], 1920.
